“Also recorded” adds a separate entry of the source. Like-named read-outs stand apart in the source and are kept apart here.
Columns and labels:
[1] = target: O^1 operator sequences (lac operator DNA); assay: lac operator DNA binding of lac repressor proteins characterized in vitro; set-up: species or system E. coli; details: for affinity for lac operator DNA (in words): relative to wild-type lac repressor unless stated
From the text: The term “affinity”, as used in conjunction with the lac operator or an inducer ligand, is defined as 1/Kd, where Kd is the concentration of DNA or ligand required to occupy 50% of the available binding sites.
(§1) To test an altered lac repressor protein, the coding sequence for the altered lac repressor protein can be cloned into an expression vector. The expression vector can then be placed into bacterial or eukaryotic cells containing a reporter gene under lac operator control to test for an active repressor protein. For example, a reporter containing E. coli β-galactosidase (encoded by lacZ) has been constructed by excising the lacZ gene under control of the lac operator from the plasmid pCR2.1 (Invitrogen) and inserting it into plasmid pACYC184 (New England Biolabs). This new composite reporter plasmid is named pZCam and can be co-transformed or electroporated into bacteria with the plasmids containing the coding sequences of altered lac repressor proteins. Host cells for these plasmids should have neither lactose repressor nor β-galactosidase proteins (i.e., the cells are lacI^− lacZ^−). Next, these bacteria are plated in the presence of either methyl umbelliferyl-β-D-galactoside (MUG) or 5-bromo-4-chloro-3-indolyl-β,D-galactoside (X-gal) as indicators to determine whether an active repressor protein is present (white colonies). In the presence of an inducer sugar, colonies containing inducer-responsive repressor protein will be fluorescent (MUG) or blue (X-gal). Alternatively, the coding sequence can be cloned into any expression vector known in the art and transformed into E. coli that are lacI^−, preferably ΔlacI, and lacpOz^+. The lacpOz region can be on a different, but compatible, plasmid or in the bacterial genome. Colonies containing active repressor protein will be white in the absence of an inducer and fluorescent (MUG) or blue (X-gal) in the presence of an inducer. Specific amino acid changes that result in increased operator binding affinity or enhanced ligand responsivity can be determined. LacI derivatives with appropriate properties are then isolated and characterized in vitro for their (a) O^1 operator DNA binding properties in the absence and presence of the appropriate inducer ligand and (b) inducer ligand binding properties in the absence and presence of operator DNA. Purified proteins can be obtained by standard protein purification methods known to those of skill in the art.

[2] = responsivity of lac repressor proteins to inducer ligand; type: biochemical, E. coli; details: relative to wild-type lac repressor
From the text: as §1
Mutants can be screened by phenotypic analysis as described above. In the preferred forms, the plasmid containing the gene for altered lac repressor protein is either co-transformed with the reporter plasmid pZCam or is transformed into E. coli that are ΔlacI and lacpOz^+. Introduction of wild-type lac repressor protein into bacteria containing pZCam or into the ΔlacI/lacpOz^+ bacteria results in white colonies in the presence of MUG or X-gal. In contrast, in the presence of IPTG or the alternative ligand, the colonies are fluorescent (MUG) or blue (X-gal). […]

[3] = system: O^1 operator sequences (lac operator DNA); details: relative to wild-type lac repressor; cited from earlier work
[4] = reduced form; cited from earlier work
[5] = read-out: Kd for O^1 operator sequences

Molecule	affinity for lac operator DNA (in words) [1]	responsivity to inducer (in words) [2]	further results
Gln60Gly: altered lac repressor protein with glycine substituted for glutamine at amino acid number 60; SEQ ID NO:2 (protein, listed as Escherichia coli) MKPVTLYDVAEYAGVSYQTVSRVVNQASHVSAKTREKVEAAMAELNYIPNRVAQQLAGKGSLLIGVATSSLALHAPSQIVAAIKSRADQLGASVVVSMVERSGVEACKAAVHNLLAQRVSGLIINYPLDDQDAIAVEAACTNVPALFLDVSDQTPINSIIFSHEDGTRLGVEHLVALGHQQIALLAGPLSSVSARLRLAGWHKYLTRNQIQPIAEREGDWSAMSGFQQTMQMLNEGIVPTAMLVANDQMALGAMRAITESGLRVGADISVVGYDDTEDSSCYIPPLTTIKQDFRLLGQTSVDRLLQLSQGQAVKGNQLLPVSLVKRKTTLAPNTQTASPRALADSLMQLARQVSRLESGQ	increased affinity for operator sequences	close to normal responsivity to inducer	Kd ([1]; presence of 1 mM IPTG, read-out: Kd for O^1 operator sequences in the presence of 1 mM IPTG): > 100000 pM; Kd [1, 5]: 4 pM
wild-type LacI: naturally occurring E. coli lac repressor protein (LacI); SEQ ID NO:1 (protein, listed as Escherichia coli) MKPVTLYDVAEYAGVSYQTVSRVVNQASHVSAKTREKVEAAMAELNYIPNRVAQQLAGKQSLLIGVATSSLALHAPSQIVAAIKSRADQLGASVVVSMVERSGVEACKAAVHNLLAQRVSGLIINYPLDDQDAIAVEAACTNVPALFLDVSDQTPINSIIFSHEDGTRLGVEHLVALGHQQIALLAGPLSSVSARLRLAGWHKYLTRNQIQPIAEREGDWSAMSGFQQTMQMLNEGIVPTAMLVANDQMALGAMRAITESGLRVGADISVVGYDDTEDSSCYIPPLTTIKQDFRLLGQTSVDRLLQLSQGQAVKGNQLLPVSLVKRKTTLAPNTQTASPRALADSLMQLARQVSRLESGQ	–	–	Kd [1, 5]: 12 pM
Gln60Gly/Leu148Phe (protein) MKPVTLYDVAEYAGVSYQTVSRVVNQASHVSAKTREKVEAAMAELNYIPNRVAQQLAGKGSLLIGVATSSLALHAPSQIVAAIKSRADQLGASVVVSMVERSGVEACKAAVHNLLAQRVSGLIINYPLDDQDAIAVEAACTNVPALFFDVSDQTPINSIIFSHEDGTRLGVEHLVALGHQQIALLAGPLSSVSARLRLAGWHKYLTRNQIQPIAEREGDWSAMSGFQQTMQMLNEGIVPTAMLVANDQMALGAMRAITESGLRVGADISVVGYDDTEDSSCYIPPLTTIKQDFRLLGQTSVDRLLQLSQGQAVKGNQLLPVSLVKRKTTLAPNTQTASPRALADSLMQLARQVSRLESGQ	increased affinity for operator sequence compared to Leu148Phe (affinity comparable to wild-type lac repressor)	enhanced inducer responsivity comparable to Leu148Phe	–
Val52Cys: mutation of lac repressor amino acid 52 from Val to Cys (protein) MKPVTLYDVAEYAGVSYQTVSRVVNQASHVSAKTREKVEAAMAELNYIPNRCAQQLAGKQSLLIGVATSSLALHAPSQIVAAIKSRADQLGASVVVSMVERSGVEACKAAVHNLLAQRVSGLIINYPLDDQDAIAVEAACTNVPALFLDVSDQTPINSIIFSHEDGTRLGVEHLVALGHQQIALLAGPLSSVSARLRLAGWHKYLTRNQIQPIAEREGDWSAMSGFQQTMQMLNEGIVPTAMLVANDQMALGAMRAITESGLRVGADISVVGYDDTEDSSCYIPPLTTIKQDFRLLGQTSVDRLLQLSQGQAVKGNQLLPVSLVKRKTTLAPNTQTASPRALADSLMQLARQVSRLESGQ	–	–	affinity for lac operator DNA (in words), from cited work [3]: increased affinity for the lac operator DNA; response to inducer (in words), from cited work [4]: normal response to inducer in reduced form
Gln55Glu: Gln55Glu mutant of the lac repressor (protein) MKPVTLYDVAEYAGVSYQTVSRVVNQASHVSAKTREKVEAAMAELNYIPNRVAQELAGKQSLLIGVATSSLALHAPSQIVAAIKSRADQLGASVVVSMVERSGVEACKAAVHNLLAQRVSGLIINYPLDDQDAIAVEAACTNVPALFLDVSDQTPINSIIFSHEDGTRLGVEHLVALGHQQIALLAGPLSSVSARLRLAGWHKYLTRNQIQPIAEREGDWSAMSGFQQTMQMLNEGIVPTAMLVANDQMALGAMRAITESGLRVGADISVVGYDDTEDSSCYIPPLTTIKQDFRLLGQTSVDRLLQLSQGQAVKGNQLLPVSLVKRKTTLAPNTQTASPRALADSLMQLARQVSRLESGQ	–	–	affinity for lac operator DNA (in words), from cited work [3]: decreased affinity for lac operator DNA
Pro320Ala: lac repressor protein Pro320Ala identified by random mutagenesis and phenotypic screening (protein) MKPVTLYDVAEYAGVSYQTVSRVVNQASHVSAKTREKVEAAMAELNYIPNRVAQQLAGKQSLLIGVATSSLALHAPSQIVAAIKSRADQLGASVVVSMVERSGVEACKAAVHNLLAQRVSGLIINYPLDDQDAIAVEAACTNVPALFLDVSDQTPINSIIFSHEDGTRLGVEHLVALGHQQIALLAGPLSSVSARLRLAGWHKYLTRNQIQPIAEREGDWSAMSGFQQTMQMLNEGIVPTAMLVANDQMALGAMRAITESGLRVGADISVVGYDDTEDSSCYIPPLTTIKQDFRLLGQTSVDRLLQLSQGQAVKGNQLLAVSLVKRKTTLAPNTQTASPRALADSLMQLARQVSRLESGQ	increased DNA affinity	normal inducer responsivity; also recorded: wild-type inducer responsivity	operator DNA affinity relative to wild-type lac repressor ([1]; higher affinity than wild-type): 10 fold
Leu148Phe (protein) MKPVTLYDVAEYAGVSYQTVSRVVNQASHVSAKTREKVEAAMAELNYIPNRVAQQLAGKQSLLIGVATSSLALHAPSQIVAAIKSRADQLGASVVVSMVERSGVEACKAAVHNLLAQRVSGLIINYPLDDQDAIAVEAACTNVPALFFDVSDQTPINSIIFSHEDGTRLGVEHLVALGHQQIALLAGPLSSVSARLRLAGWHKYLTRNQIQPIAEREGDWSAMSGFQQTMQMLNEGIVPTAMLVANDQMALGAMRAITESGLRVGADISVVGYDDTEDSSCYIPPLTTIKQDFRLLGQTSVDRLLQLSQGQAVKGNQLLPVSLVKRKTTLAPNTQTASPRALADSLMQLARQVSRLESGQ	slightly diminished DNA affinity; also recorded: diminished affinity for operator sequences	enhanced responsivity to IPTG	–

Source: patent publication US7390645B2, “Lactose repressor proteins with increased operator DNA binding affinity” (William Marsh Rice University, priority 1997, dated 2008)
